“Also recorded” adds a separate entry of the source. Where two headings read alike, the source gives them in different places. Values belong to the compound of their own block, whether it stands above or below them. Rh2(OAc)3 = dirhodium(II) triacetate, bound to the side-chain carboxylate
Legend:
Lyn SH3 domain = molecular target: T1, Lyn SH3 domain (Homo sapiens, UniProt P07948); experiment: ITC binding of metallopeptides to Lyn SH3 domain; settings: 25 °C
T1 construct: The lyn SH3 domain was amplified by PCR using Phusion DNA polymerase; GST (N, cleaved yes); made in house; host or cells: E. coli BL21 (DE3)
T1 sequence (P07948 62-121): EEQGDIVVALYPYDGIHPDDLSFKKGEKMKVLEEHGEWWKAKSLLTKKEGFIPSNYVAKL
Source text: The His96 is unique among Src-family sequences, and the His78 appears only in Hck and Lck. Individual amino-acid alterations are the only factors that might distinguish the nearly identical secondary structures and peptide-binding preferences of Src-family SH3 domains (cf. Fig. 1a and b). Based on a Src-family SH3-binding sequence (VSL12),[37] known to bind with similar affinity across Src-family SH3 domains,[38] we made metallopeptides with rhodium in different sites near the beginning of the SH3-binding peptide. […] The optimal metallopeptide, S2E^Rh, bound to Lyn with 6 nM affinity. The accuracy of ITC data is reduced for C values >1000 (C = [protein]/K d). Under these conditions the distribution of data points on the isotherm reduces the precision of the global fit. Since the enthalpic contributions to binding in the formation of the complexes described in this work were high, we were able to use a low protein concentration (4 μM) which ensured that our C values were well below this upper range. […] In broad terms, the thermodynamics—favourable enthalpy and unfavourable entropy—are consistent with previous examinations of peptide–SH3 binding (see Table S1 ^† for thermodynamic data).[39] Moving the location of the rhodium center toward the N-terminus, away from the histidine, led to a drop in binding affinity. The N13D^Rh metallopeptide, a convenient negative control with the rhodium center too far for histidine interactions, binds with micromolar activity, similar to simple SH3 binding of the parent peptide. We conclude that the vast affinity improvement is due to rhodium coordination to unique histidine residue(s).
(§1) All chemical reagents were purchased from Sigma-Aldrich and were used without further purification.
(§2) Peptide synthesis. All peptides were synthesized manually or with an AAPPTEC APEX 396 Automated Multipeptide Synthesizer using standard solid-phase Fmoc protocols.1,2 Peptides were prepared as C-terminal amides using Rink amide MBHA resin (AAPPTEC) and were acetylated at the N-terminus prior to cleavage from the resin. Peptides and metallopeptides were purified by reverse-phase HPLC.
(§3) HPLC separation. Reverse-phase HPLC was performed on a Shimadzu CBM-20A instrument with Phenomenex Jupiter 4μ Proteo 90A (250 × 15 mm preparative) and Phenomenex Jupiter 4μ Proteo 90A (250 × 4.6 mm analytical) columns. The columns were eluted with a gradient of acetonitrile in water (10-90%) (flow rates of 8 mL/min and 1 mL/min for preparative and analytical columns, respectively). Trifluoroacetic acid (0.1%) was added to all eluents. […]
(§4) ITC analysis. ITC experiments were carried out on a VP-ITC instrument (MicroCal) at 25 °C. Titrations of 275 μM peptide into 18 μM SH3 domain proteins were used for all titrations, except for the titration of S2ERh into Lyn SH3 domain, where the lower concentrations of 69 µM S2ERh peptide and 4 µM Lyn SH3 were used to attain a c-value for the titration within the accepted limts for ITC experiments ([…]).3
(§5) Heats of dilutions were measured independently for each experiment by titrating 275 μM peptide into buffer (20 mM phosphate buffer, pH 7, 150 mM NaCl, 1 mM EDTA). All experimental data were fitted using a one set of sites binding model in Origin software (MicroCal) except for the data with Hck SH3 domain. With Hck only, the non-peptide specific binding of dirhodium tetraacetate to Hck SH3 domain could not be treated as negligible, despite the very weak interaction (88 µM), due to the larger enthalpy contribution observed for non-specific binding to this SH3 domain, so the titrations of peptide into Hck were fitted using a 2 set of sites binding model where the stoichiometry for the second set of sites was fixed at 2.0. […]
(§6) Mass spectrometry. ESI-MS was performed on a Bruker Daltonics micrOTOF instrument.
Known compounds and proteins. Several metallopeptides (S2ERh, L3ERh, R5ERh, and 13DRh) were reported previously and […]

Hck SH3 domain = molecular target: T2, Hck SH3 domain (Homo sapiens, UniProt P08631); experiment: ITC binding to Hck SH3 domain (two-sets-of-sites fit); settings: 25 °C, high affinity specific site
T2 construct: The hck SH3 domain was amplified by PCR using Phusion DNA polymerase; GST (N, cleaved yes); made in house; host or cells: E. coli BL21 (DE3)
T2 sequence (P08631 77-139): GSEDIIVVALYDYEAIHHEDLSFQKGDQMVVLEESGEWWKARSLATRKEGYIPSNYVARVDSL
Protocol: as §1, §2, §3, §4, §5, §6
Known compounds and proteins. Several metallopeptides (S2ERh, L3ERh, R5ERh, and 13DRh) were reported previously and were prepared by known protocols;4 alkyne-diazo 3,5 3-azido-7-hydroxycoumarin6 were synthesized following reported procedures; fyn, yes, lck, and src SH3 protein domains were prepared following published procedures.5 Abl, hck, and lyn SH3 domain plasmids were adapted from the previously reported genes;7 the gene templates were obtained from Addgene, ID […]
Table S1. Table of the thermodynamic parameters for binding of metallopeptides to SH3 domains, determined by isothermal […]
Protein Peptide Stoichiometry Kd ΔH -TΔS ΔG
(nM) (kcal mol-1) (kcal mol-1) (kcal mol-1)
* The binding isotherms for metallopeptide interactions with Hck were fitted using a two -sets-of-sites model with the stoichiometry for the second set of sites fixed to 2.0. The second set of binding sites was used to account for the weak, but not negligable, binding of the peptide to another surface of Hck SH3 domain, presumably through non-specific interactions of the dirhodium tetraacetate group. The thermodynamics for the high affinity specific binding site interaction are provided in this

Lck SH3 domain = molecular target: T3, Lck SH3 domain (Homo sapiens, UniProt P06239); experiment: ITC binding to Lck SH3 domain; settings: 25 °C
T3 construct: fyn, yes, lck, and src SH3 protein domains were prepared following published procedures; made in house
T3 sequence (P06239 61-121 limits assumed): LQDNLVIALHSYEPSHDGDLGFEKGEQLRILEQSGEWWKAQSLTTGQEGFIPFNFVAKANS
Protocol: (§7) All chemical reagents were purchased from Sigma-Aldrich and were used without further purification. […]
as §4, §5
Known compounds and proteins. […]

Yes SH3 domain = molecular target: T4, Yes SH3 domain (Homo sapiens, UniProt P07947); experiment: ITC binding to Yes SH3 domain
T4 construct: fyn, yes, lck, and src SH3 protein domains were prepared following published procedures; made in house
T4 sequence (P07947 91-152 limits assumed): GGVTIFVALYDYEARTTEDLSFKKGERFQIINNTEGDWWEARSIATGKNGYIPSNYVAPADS
Protocol: as §1, §2
(§8) HPLC separation. Reverse-phase HPLC was performed on a Shimadzu CBM-20A instrument with Phenomenex Jupiter 4μ Proteo 90A (250 × 15 mm preparative) and Phenomenex Jupiter 4μ Proteo 90A (250 × 4.6 mm analytical) columns. The columns were eluted with a gradient of acetonitrile in water (10-90%) (flow rates of 8 mL/min and 1 mL/min for preparative and analytical columns, respectively). Trifluoroacetic acid (0.1%) was added to all eluents.
(§9) FPLC separation. Analytical FPLC was performed on an ÄKTA instrument with Superdex Peptide PE 7.5/300 column. The column was equilibrated with buffer (150 mM NaCl, 50 mM Tris, pH 7.0) at flow rate of 0.2 mL/min.
as §4, §5, §6
(§10) Known compounds and proteins. Several metallopeptides (S2ERh, L3ERh, R5ERh, and 13DRh) were reported previously and were prepared by known protocols;4 alkyne-diazo 3,5 3-azido-7-hydroxycoumarin6 were synthesized following reported procedures; fyn, yes, lck, and src SH3 protein domains were prepared following published procedures.5 Abl, hck, and lyn SH3 domain plasmids were adapted from the previously reported genes;7 the gene templates were obtained from Addgene, ID

Abl SH3 domain = molecular target: T5, Abl SH3 domain (Homo sapiens, UniProt P00519); experiment: ITC binding to Abl SH3 domain; settings: for Kd / -TΔS / ΔG / ΔH: 25 °C
T5 construct: The abl SH3 domain was amplified by PCR using Phusion DNA polymerase; GST (N, cleaved yes); made in house; host or cells: E. coli BL21 (DE3)
T5 sequence (P00519 60-121): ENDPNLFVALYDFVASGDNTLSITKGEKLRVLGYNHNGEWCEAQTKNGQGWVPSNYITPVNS
Protocol: as §1, §2, §8, §9, §4, §5, §6, §10

[1] = molecular target: T6, Full-length Lyn kinase (GST-tagged Lyn B) (Homo sapiens, UniProt P07948); experiment: Lyn kinase activation assay (ADP-Glo Kinase Assay); format: biochemical; settings: 74 nM Lyn, 5 min
T6 construct: Full-length Lyn kinase (74 nM) was treated with substrate peptide and ATP; purchased Promega
T6 sequence (P07948 1-491 isoform P07948-2): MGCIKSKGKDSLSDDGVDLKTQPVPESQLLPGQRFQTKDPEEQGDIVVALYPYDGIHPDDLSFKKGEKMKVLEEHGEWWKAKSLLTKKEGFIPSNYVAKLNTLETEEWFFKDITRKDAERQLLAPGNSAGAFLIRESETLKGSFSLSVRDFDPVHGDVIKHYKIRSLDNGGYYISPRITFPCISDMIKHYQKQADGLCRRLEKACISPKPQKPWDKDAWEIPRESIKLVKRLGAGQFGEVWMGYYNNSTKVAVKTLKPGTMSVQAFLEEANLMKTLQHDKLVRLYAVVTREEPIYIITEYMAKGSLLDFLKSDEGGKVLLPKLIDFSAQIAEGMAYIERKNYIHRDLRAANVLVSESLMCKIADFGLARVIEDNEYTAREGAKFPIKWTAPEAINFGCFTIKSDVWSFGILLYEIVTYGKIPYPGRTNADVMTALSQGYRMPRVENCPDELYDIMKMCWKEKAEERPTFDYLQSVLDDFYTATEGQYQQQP
Protocol: We examined phosphorylation of a peptide substrate at low enzyme concentration (0.074 μM) and short reaction time (t = 5 min) to minimize the alternative autophosphorylation activation pathway (Fig. 6). Kinase activation with traditional ligands has typically required high ligand concentrations (∼1 mM) to overcome the intramolecular nature of the SH3–kinase domain interaction.
Fig. 6 Activation of Lyn kinase activity by a metallopeptide, S2E^Rh, and the parent peptide, S2E. […] Full-length Lyn kinase (74 nM) was treated with substrate peptide and ATP. Kinase activity was measured after 5 min in an adaptation of reported methods.[5] See ESI ^† for details.
as §7
Kinase assay. ATP turnover by Lyn was measured using the ADP-GloTM Kinase Assay (Promega) according to the manufacturer’s protocol. Briefly, final concentrations of 72 μM ATP, 74 nM Lyn (GST-tagged Lyn B), and 240 μM substrate peptide (all from Promega) were combined in buffer (40 mM Tris, 50 μM dithiothreitol, 2 mM MnCl2 and 0.1 mg/mL BSA at pH 7.5) with a solution of the desired treatment (or control) in the same buffer for a final reaction volume of 5 µL. The kinase reaction was allowed to proceed at room temp. for 5 min from addition of ATP before the start of the ADP-Glo protocol halted the reaction. Chemiluminescence data were acquired on a Tecan Infinite M1000 microplate reader in white 384 well low volume plates (Corning Costar 3674) with an integration time of 250 ms per well. […]

Abl = molecular target: Abl; parameters: method as in PMID 8718852; settings: read-out: affinity for Abl; cited from earlier work
[2] = Yes SH3, ITC, 25 °C, read-out: SH3 Kd

Compound: CC(=O)[O-].CC(=O)[O-].CC(=O)[O-].CC(=O)[O-].[Rh+2].[Rh+2] [Rh2(OAc)4, reference compound]
-TΔS (Lyn SH3 domain): 1.0 kcal/mol
Kd (Lyn SH3 domain): 150000 nM
ΔG (Lyn SH3 domain): -5.2 kcal/mol
ΔH (Lyn SH3 domain): -6.3 kcal/mol
-TΔS (Hck SH3 domain): -1.0 kcal/mol
Kd (Hck SH3 domain): 89000 nM
ΔG (Hck SH3 domain): -5.5 kcal/mol
ΔH (Hck SH3 domain): -4.5 kcal/mol
Lyn kinase activation [1]: no activation; also recorded: had no effect on kinase activity

Compound: E^RhPTYSPPPPP [p40-A1E^Rh]
Stoichiometry (Abl SH3 domain): 1.0
-TΔS (Abl SH3 domain): 8.9 kcal/mol
ΔG (Abl SH3 domain): -10.5 kcal/mol
ΔH (Abl SH3 domain): -19.4 kcal/mol

Compound: APTYSPPPPP [p40]
Kd (Abl): 400 nM

Compound: R6E^Rh: rhodium(II) metallopeptide based on Src-family SH3-binding sequence (VSL12), rhodium at residue 6 (VSLAREPLPPLPN; N-terminal acetyl, C-terminal amide)
Kd (Lyn SH3 domain): 152 nM
Kd (Hck SH3 domain): 51 nM
Kd (Lck SH3 domain): 3790 nM

The remaining lines, values ahead:

Kd (Lyn SH3 domain): 1200 nM
Kd (Hck SH3 domain): 544 nM
Kd (Lck SH3 domain): 239 nM
Kd (Yes SH3 domain; Yes SH3, ITC, 25 °C, listed as N13DRh, read-out: SH3 Kd): 238 nM
Kd (Yes SH3 domain; [2]): 301 nM
Kd (Yes SH3 domain; Yes SH3, unit inferred, read-out: Affinity of designed rhodium(II) metallopeptides (Fig. 1d)): 299 nM
Kd (Abl SH3 domain): 8.85 µM
Compound: N13D^Rh: negative control metallopeptide with the rhodium center too far for histidine interactions (VSLARRPLPPLPD; N-terminal acetyl, C-terminal amide)

Kd (Lyn SH3 domain): 30 nM
Kd (Hck SH3 domain): 52 nM
Kd (Hck SH3 domain; listed as L3ERh): 22 nM
Kd (Yes SH3 domain; [2]): 3740 nM
Compound: L3E^Rh: rhodium(II) metallopeptide based on Src-family SH3-binding sequence (VSL12), rhodium at residue 3 (VSEARRPLPPLPN; N-terminal acetyl, C-terminal amide)

Kd (Abl SH3 domain): 0.022 µM
Compound: E^RhPTYSPPPPP (Ac-E(Rh2(OAc)3)PTYSPPPPP-NH2; also: metal complex: Glu1 carboxylate bound to dirhodium(II) triacetate) [p40-A1E^Rh]

Stoichiometry (Abl SH3 domain): 1.2
-TΔS (Abl SH3 domain): 5.3 kcal/mol
ΔG (Abl SH3 domain): -7.0 kcal/mol
ΔH (Abl SH3 domain): -12.3 kcal/mol
Compound: APTE^RhSPPPPP [p40-Y4E^Rh]

Kd (Lyn SH3 domain): 81 nM
Kd (Yes SH3 domain; [2]): 1740 nM
Compound: R5E^Rh: rhodium(II) metallopeptide based on Src-family SH3-binding sequence (VSL12), rhodium at residue 5; catalyst for Yes SH3 modification (VSLAERPLPPLPN; N-terminal acetyl, C-terminal amide)

Kd (Hck SH3 domain): 2320 nM
Kd (Lck SH3 domain): 79 nM
Compound: P12D^Rh: metallopeptide with the rhodium core moved to the 12th residue (VSLARRPLPPLDN; N-terminal acetyl, C-terminal amide)
